Patent publication US20090203886A1 (OSAKA UNIVERSITY, published 2009)

T1: human CD20 antigen (human, UniProt P11836 1-297)
T1 sequence (looked up): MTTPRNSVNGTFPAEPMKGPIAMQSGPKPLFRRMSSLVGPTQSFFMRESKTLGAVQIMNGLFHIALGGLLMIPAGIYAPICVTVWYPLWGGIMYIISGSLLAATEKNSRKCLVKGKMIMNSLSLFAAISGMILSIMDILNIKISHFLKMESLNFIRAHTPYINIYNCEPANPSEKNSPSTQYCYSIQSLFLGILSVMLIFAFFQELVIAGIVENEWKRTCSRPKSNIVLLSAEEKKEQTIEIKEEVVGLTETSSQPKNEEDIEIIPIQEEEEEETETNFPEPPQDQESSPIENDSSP


Experiments:
human CD20 antigen [1] = molecular target: T1, human CD20 antigen; test: cell-based or functional assay
human CD20 antigen [2] = molecular target: T1, human CD20 antigen; test: Scatchard analysis on Raji cells, FITC secondary antibody fluorescence (Example 2)
Description: The mixture was shaken for one hour at room temperature while shielding against light and primary antibodies binding to cells were detected. After the reaction, the mixture was centrifuged at 3,000 rpm for three minutes and the cells were recovered. The cells were suspended in 200 μl of PBS to remove unreacted FITC-labeled anti murine IgG (H&L) antibody remaining on the cell surface and then centrifuged at 3,000 rpm for three minutes to remove the supernatant. This operation was repeated twice.
After the detection step, the image was digitized using image analysis software Image Quant (Amersham Bioscience) and analyzed using Excel (Microsoft). Background values for the plate, the PBS solution and FITC-labeled secondary antibody displaying non-specific binding to cells were determined. Then a value for the reaction only between the cells and the FITC-labeled secondary antibodies was obtained. Average values for those four points were subtracted from the fluorescent intensity value for each sample in order to obtain the amount of fluorescence of cell-conjugated FITC-labeled secondary antibody. A standard curve was prepared by measuring the amount of fluorescence at various concentrations of control cell-conjugated FITC-labeled secondary antibodies. Thus the amount of cell-conjugated secondary antibody (number of moles or weight) was calculated. The amount of cell-conjugated primary antibody was calculated assuming that each primary antibody and the FITC-labeled secondary antibody react at a ratio of 1:2. Primary antibody in suspension was calculated by subtracting the cell-conjugated amount from the added amount. When calculating the antibody concentration as a molar concentration, the molecular weight of the monoclonal was taken to be 150,000.
Scatchard analysis was used to calculate the antigen number and dissociation constant (Kd value) refer to Scatchard, G.; Ann. N.Y. Acad.

human CD20 antigen [3] = molecular target: T1, human CD20 antigen; test: cell-based or functional assay; remark: listed apart in the source
human CD20 antigen [4] = molecular target: T1, human CD20 antigen; test: cell-based or functional assay; remark: listed apart in the source

Cell growth inhibiting test on Raji cells, Absorption (492 nm) (absorbance 492 nm) (human CD20 antigen [1])	Kd (human CD20 antigen [2]) [nM]	Cell growth inhibiting test on Raji cells, Absorption (492 nm) (human CD20 antigen [3]) [absorbance 492 nm]	Capacity to Induce Apoptosis (Raji cells) (human CD20 antigen [4])	Molecule
1.76	6.79	–	–	2B8 murine anti CD20 antibody (positive control)
–	0.4	2.6	30	1K1782 murine anti CD20 monoclonal antibody (antibody, V domains shown, also called m1782) VH: QVQLQQSGAELAKPGASVKMSCKASGYTFTSYWMHWVKQRPGQGLEWIGYITPSTGYTDYNKKFKDKATLTADRSSSTAYMHLSSLTSEDSAVYYCARSGPYFDVWGAGTTVTVSS VL: DILLTQSPAILFVSPGERVSLSCRASQNIGTSIHWYQQRTNGSPRLLIKYASESFSGIPSRFSGSGSGTDFTLSINSVESEDIADYYCQQSNSWPFTFGSGTKLEIK
–	0.84	2.33	50	1K1712 murine anti CD20 monoclonal antibody (antibody, V domains shown, also called m1712) VH: QVQLQQPGAELVKPGASVKMSCKASGFTFTSYNLHWVKQTPGQGLEWIGAIYPGSGDTSYNQQFKGKATLTADKSSNTAYMQLNSLTSEDSAVYCCARSAMISTGNWYFDYWGQGTTLTVSS VL: QIVLSQSPAILSASPGEKVTMTCRASSSVSYMDWYQQKPGSSPKPWIYATSNLASGVPARFSGSGSGTSYSLTISRVEAEDTATYYCQQWTFNPPTFGSGTKLEIK
–	0.54	2.24	50	1K1736 murine anti CD20 monoclonal antibody (antibody, V domains shown) VH: QVQLQQPGAELVKPGASVKMSCKASGYTFTTYNLHWVKQTPGQGLEWIGGIYPGNGDTSYNQKFKVKATLTADKSSNTAYMQLSSLTSEDSAVYYCARWIYYGNYEGTLDYWGQGTSVTVSS VL: QIVLSQSPAILSSSPGEKVTMTCRASSSVSYMLWYQQKPGSSPEPWIYATSNLASGVPARFSGGGSGTSYSLTISRVEAEDAATYYCQQWTFNPPTFGGGTKLEIK
–	0.78	2.54	30	1K1402 murine anti CD20 monoclonal antibody (antibody, V domains shown, also called m1402) VH: QVQLQQPGAELVKPGASVKMSCKASGFTFTSYNMHWVKQTPGQGLEWIGGIYPGNGDTSYNQKFKGKATLTADKSSSTAYMQLSSLTSEDSAVYYCARFYYYGSMGAMDYWGQGTSVTVSS VL: QIVLSQSPAILSASPGEKVTMTCRASSSVSYMHWYQQKPGSSPKPWIYATSNLASGVPARFSGSGSGTSYSLTITRVEAEDAATYYCQQWTFNPPTFGAGTKLELK
–	1.7	1.79	160	1K1791 murine anti CD20 monoclonal antibody (antibody, V domains shown, also called m1791) VH: QIQLVQSGPELKKPGETVKISCKASGYTFTNFGVNWVKQAPGKGLKWMGWINTYTGEPSYADDFKGRFAFSLEASANTAYLQINNLKNDDMSTYFCTRRTNYYGTSYYYAMDYWGQGTSVTVSS VL: STVMTQTPKFLLVSAGDRVTITCKASQSVSNDVAWYQQKPGQSPKVLIYFASNRYTGVPDRFTGSGYGTDFTFTINTVQAEDLAVYFCQQDYSSPLTFGAGTKLELK
